Test results reported in paper PMC3116947.
Where “and” joins values, the source holds several entries; their conditions need not be identical. Equal values may be shown once.

B1: Grb2 cSH3, P62993 (protein)
chain: QQPTYVQALFDFDPQEDGELGFRRGDFIHVMANSDPNWWKGACHGQTGMFPRNYVTPVNR
B2: Grb2 cSH3, P62993 (protein)
chain: QQPTYVQALFDFDPQADGELGFRRGDFIHVMDNSDPNWWKGACHGQTGMFPRNYVTPVNR
B3: Grb2 cSH3, P62993 (protein)
chain: QQPTYVQALFDFDPQEDGELGFRRGDFIHVMDNSDPNWWKGACHGQTGMFPRNYVTPVNR

Columns and labels:
[1] = target: Gab1 G1 peptide (Homo sapiens); assay: ITC
[2] = target: Gab1 G2 peptide (Homo sapiens); assay: ITC

Binder | Kd [1] | Kd [2] [µM]
B1 | 171 µM | –
B2 | 444 µM | 158
B3 | 200 µM and 152 µM and 50 µM | 42
